Drawing on PMC12808100, “The non-catalytic DNA polymerase ε subunit is an NPF motif recognition protein” (Nature Communications, 2025), this text covers fold weaker binding than HA-POLE2 and Kd for two substances.

Experiment [1] deals with NPF motif peptide of DONSON (residues 71-88). Put plainly: native holdup (nHU) titration with dot blot; DONSON_71-88-saturated streptavidin resin mixed with control resin at various proportions; extracts of HEK293T cells expressing HA-tagged POLE2 variants; 4 °C, 2 h; depletion quantified with an antibody against the HA tag; apparent.
Experiment [2] concerns the target non-catalytic subunit of DNA polymerase ε (POLE2), endogenous (human (endogenous in Jurkat)) (UniProt P56282). Put plainly: native holdup (nHU) with mass spectrometry; estimate from the difference between the depletion of POLE and of POLE2 by the same NPF motif bait, with about 1 nM of each assumed in the extract; apparent.

Chain of catalytic subunit of DNA polymerase ε (POLE), endogenous (Q07864 whole entry): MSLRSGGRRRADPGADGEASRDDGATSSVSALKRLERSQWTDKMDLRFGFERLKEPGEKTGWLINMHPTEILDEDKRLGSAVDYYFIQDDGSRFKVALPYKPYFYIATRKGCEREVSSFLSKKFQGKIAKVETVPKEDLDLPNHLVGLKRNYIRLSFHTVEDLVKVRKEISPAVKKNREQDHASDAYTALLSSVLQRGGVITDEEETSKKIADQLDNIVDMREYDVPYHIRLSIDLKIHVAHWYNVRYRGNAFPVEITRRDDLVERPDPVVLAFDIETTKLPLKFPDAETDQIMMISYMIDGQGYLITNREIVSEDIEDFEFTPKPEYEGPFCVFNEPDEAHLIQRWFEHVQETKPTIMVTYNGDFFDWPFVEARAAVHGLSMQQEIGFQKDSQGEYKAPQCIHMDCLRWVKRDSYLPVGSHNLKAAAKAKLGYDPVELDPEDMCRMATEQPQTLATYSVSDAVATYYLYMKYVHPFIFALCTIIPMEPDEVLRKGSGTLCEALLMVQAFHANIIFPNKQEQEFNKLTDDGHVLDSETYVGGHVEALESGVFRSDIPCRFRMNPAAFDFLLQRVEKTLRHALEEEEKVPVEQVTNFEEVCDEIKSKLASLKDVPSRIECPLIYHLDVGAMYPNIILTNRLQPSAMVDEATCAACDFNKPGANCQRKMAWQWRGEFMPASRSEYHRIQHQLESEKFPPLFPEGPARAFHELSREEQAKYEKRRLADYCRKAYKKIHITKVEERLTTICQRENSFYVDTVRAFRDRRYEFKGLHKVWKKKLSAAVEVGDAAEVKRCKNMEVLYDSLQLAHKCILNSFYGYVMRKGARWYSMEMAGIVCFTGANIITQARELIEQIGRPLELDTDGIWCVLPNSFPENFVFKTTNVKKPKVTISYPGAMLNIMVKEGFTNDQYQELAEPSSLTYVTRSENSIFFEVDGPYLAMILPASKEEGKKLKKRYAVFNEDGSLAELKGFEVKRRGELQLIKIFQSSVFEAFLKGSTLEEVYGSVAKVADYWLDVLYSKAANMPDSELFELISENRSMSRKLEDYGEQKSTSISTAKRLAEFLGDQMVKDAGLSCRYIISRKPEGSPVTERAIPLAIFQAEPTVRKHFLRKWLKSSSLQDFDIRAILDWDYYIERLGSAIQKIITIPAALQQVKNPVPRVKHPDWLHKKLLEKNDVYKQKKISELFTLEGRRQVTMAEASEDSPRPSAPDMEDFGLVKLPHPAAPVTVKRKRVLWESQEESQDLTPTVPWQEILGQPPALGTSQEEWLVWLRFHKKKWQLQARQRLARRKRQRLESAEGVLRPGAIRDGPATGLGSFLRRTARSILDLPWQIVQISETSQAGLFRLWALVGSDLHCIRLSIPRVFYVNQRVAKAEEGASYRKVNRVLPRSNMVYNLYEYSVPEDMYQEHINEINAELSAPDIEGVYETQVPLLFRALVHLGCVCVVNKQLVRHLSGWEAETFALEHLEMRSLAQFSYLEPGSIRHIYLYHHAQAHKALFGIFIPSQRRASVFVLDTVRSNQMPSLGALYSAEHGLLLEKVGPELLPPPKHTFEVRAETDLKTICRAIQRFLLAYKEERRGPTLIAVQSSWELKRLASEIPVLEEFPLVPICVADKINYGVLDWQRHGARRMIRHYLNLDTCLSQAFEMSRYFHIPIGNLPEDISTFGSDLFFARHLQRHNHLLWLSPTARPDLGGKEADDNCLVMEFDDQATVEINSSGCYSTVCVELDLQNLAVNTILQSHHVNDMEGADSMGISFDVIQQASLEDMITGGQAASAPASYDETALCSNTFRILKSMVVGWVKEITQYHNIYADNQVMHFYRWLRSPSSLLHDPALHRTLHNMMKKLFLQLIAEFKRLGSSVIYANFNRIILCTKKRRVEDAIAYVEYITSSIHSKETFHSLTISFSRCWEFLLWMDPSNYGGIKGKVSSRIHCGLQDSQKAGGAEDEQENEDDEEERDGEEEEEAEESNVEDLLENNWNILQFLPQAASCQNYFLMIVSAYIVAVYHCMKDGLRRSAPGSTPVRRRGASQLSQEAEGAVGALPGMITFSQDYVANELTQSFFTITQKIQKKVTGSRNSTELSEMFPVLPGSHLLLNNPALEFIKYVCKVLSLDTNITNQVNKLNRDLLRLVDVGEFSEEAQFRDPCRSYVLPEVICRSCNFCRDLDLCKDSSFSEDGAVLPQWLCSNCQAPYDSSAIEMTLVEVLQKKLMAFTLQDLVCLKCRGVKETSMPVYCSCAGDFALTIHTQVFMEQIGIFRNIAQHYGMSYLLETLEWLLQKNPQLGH
Chain of HA-MBP-POLE2 (P56282 whole entry): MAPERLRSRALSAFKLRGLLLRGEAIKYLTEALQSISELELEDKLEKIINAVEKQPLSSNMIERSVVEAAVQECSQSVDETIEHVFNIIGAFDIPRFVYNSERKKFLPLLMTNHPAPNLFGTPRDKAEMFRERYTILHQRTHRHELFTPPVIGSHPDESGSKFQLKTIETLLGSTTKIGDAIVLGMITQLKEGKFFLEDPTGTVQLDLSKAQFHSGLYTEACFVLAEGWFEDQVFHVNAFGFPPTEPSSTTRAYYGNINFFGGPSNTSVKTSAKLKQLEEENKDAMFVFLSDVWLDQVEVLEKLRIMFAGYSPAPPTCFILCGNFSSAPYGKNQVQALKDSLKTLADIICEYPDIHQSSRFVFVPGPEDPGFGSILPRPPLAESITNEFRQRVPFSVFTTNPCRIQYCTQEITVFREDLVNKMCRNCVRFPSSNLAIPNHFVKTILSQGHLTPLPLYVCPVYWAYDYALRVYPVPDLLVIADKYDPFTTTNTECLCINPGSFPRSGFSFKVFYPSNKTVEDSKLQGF
Chain of non-catalytic subunit of DNA polymerase ε (POLE2), endogenous (human (endogenous in Jurkat)) (P56282 whole entry): as above

“HA-MBP-POLE2 (from UniProt P56282 1-527) (natural protein)”: the fold weaker binding than HA-POLE2 in experiment [1] stood at 10 fold.

Turning to “catalytic subunit of DNA polymerase ε (POLE), endogenous (from UniProt Q07864 1-2286) (natural protein)”, in experiment [2], the Kd is 0.1 to 0.3 nM.
